Source: WO2016038310A1
Where “and” joins values, the source holds several entries; their conditions need not be identical. Identical values can stand only once.

Assays:
[1] = target: les FSH ovine et humaine (ovine and human FSH); assay: ELISA saturation binding, Kd estimated with GraphPad Prism
[2] = target: les eCG et hCG (equine and human chorionic gonadotropins); assay: as above

B1: scFv A8 (scFv)
scFv: QVQLQQSGGGLVQPGGSRKLSCAASGFTFSDFGTHWIRQAPEKGLEWVAYISSGSSTRYYADTVKGRFTISRDDPKNTLFLQMTSLRSEDTAMYYCARSYDGYHVPSFAYWGQGTLVTVSAGGGGSGGGGSGGGGSDIQMTQTPLSLSVSLGDQASISCRSSQNIVHSNGNTYLEWYLQKPGQSPKLLIYRVSNRFSGIPDRFSGSSSGTDFTLKISRVEAEDLGVYYCFQGSHVPLTFGAGTKLELKHHHHHH
Q: With B1 as the binder, how does the Kd [1] read?
A: 3.12 µM and 4.62 µM

Q: And the Kd [2]?
A: 5.78 µM and 22.2 µM
